According to paper PMC4936896, “Primate TRIM5 proteins form hexagonal nets on HIV-1 capsids” (eLife, 2016):

Biological target: the molecule itself
Assay: SEC; final gel filtration step, HiLoad 16/600 Superdex 200 in 20 mM CHES, 100 nM ZnCl2, 1 mM TCEP, pH 10.0, 4°C; oligomer judged from retention time

Protein | stoichiometry N
African green monkey TRIM5α (Chlorocebus pygerythrus) (natural protein, UniProt Q5C8U4 1-515, looked up, also called TRIM5α_(AGMpyg); TRIM5_(AGMpyg)) MASGILVNVKEEVTCPICLELLTEPLSLPCGHSLCQACITANHKESMLYKEEERSCPVCRISYQPENIQPNRHVANIVEKLREVKLSPEEGQKVDHCARHGEKLLLFCQEDSKVICWLCERSQEHRGHHTFLMEEVAQEYHVKLQTALEMLRQKQQEAEKLEADIREEKASWKIQIDYDKTNVSADFEQLREILDWEESNELQNLEKEEEDILKSLTKSETEMVQQTQYMRELISDLEHRLQGSMMELLQGVDGIIKRVENMTLKKPKTFHKNQRRVFRAPDLKGMLDMFRELTDVRRYWVDVTLAPNNISHAVIAEDKRQVSYRNPQIMYQSPGSLFGSLTNFSYCTGVPGSQSITSGKLTNFNYCTGVLGSQSITSGKHYWEVDVSKKSAWILGVCAGFQPDATYNIEQNENYQPKYGYWVIGLQEGDKYSVFQDGSSHTPFAPFIVPLSVIICPDRVGVFVDYEACTVSFFNITNHGFLIYKFSQCSFSKPVFPYLNPRKCTVPMTLCSPSS | 2
proteolysis-resistant owl monkey TRIMCyp_(K283D,Q287D) (natural protein) not shown | 2
chimpanzee TRIM5α (Pan troglodytes) (natural protein, chimpanzee (Pan troglodytes), UniProt Q5D7J1 1-493, looked up, also called TRIM5αcpz) MASGILVNVKEEVTCPICLELLTQPLSLDCGHSFCQACLTANHKKSMLDKGESSCPVCRISYQPENIRPNRHVANIVEKLREVKLSPEGQKVDHCAHHGEKLLLFCQEDGKVICWLCERSQEHRGHHTFLTEEVAREYQVKLQAALEMLRQKQQEAEELEADIREEKASWKTQIQYDKTNVLADFEQLRDILDWEESNELQNLEKEEEDILKSLTKSETEMVQQTQSVRELISDLERRLQGSVMELLQGVDGVIKRMENVTLKKPETFPKNQRRVFRAPDLKGMLEVFRELTDVRRYWVDVTVAPNNISCAVISEDMRQVSSPKPQIIYGARGTRYQTFMNFNYCTGILGSQSITSGKHYWEVDVSKKSAWILGVCAGFQPDAMCNIEKNENYQPKYGYWVIGLEEGVKCSAFQDGSFHTPSAPFIVPLSVIICPDRVGVFLDYEACTVSFFNITNHGSLIYKFSHCSFSQPVFPYLNPRKCGVPMTLCSPSS | 2
owl monkey TRIMCyp (Aotus trivirgatus) (natural protein) not shown | 2
